These results are taken from the nanobody polyreactivity screen of Harvey et al. (2022).

The series can be described thus: yeast display, Sf9 membrane polyspecificity reagent, FACS + sequencing; frameworks hold sequencing errors. In outline:
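Genes from sorted yeast were amplified by colony PCR, read by MiSeq 2 × 250 sequencing and filtered on CDR length. These cells carried a synthetic nanobody library in Saccharomyces cerevisiae BJ5465 and were sorted by FACS into low and high (top ~1%) gates on anti-HA and streptavidin fluorescence. Polyreactivity is labelled according to the gate of origin.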
Consider “QVPLVDSGGGLVQAGGSVRLSCAASGSIFYVYALGWYRQAPGTERELVAAINPSGGSTYADSVKGRFTISRDNAKISVYLQMYSLKTEDNAVSYCAAEPEWWWRGYGYWGQGKQVTVSS”, for which the “polyreactivity (PSR sort gate)” value was “low polyreactivity”.
For “QVPLVEAGGGLVQAGGSLRVSCAASGITFQLYGMGWYSQAPGKERELVAAITGSDGITYYADSVKGRFTISLDNAKNTVYLPMNSLKPEDTAVYYCAAEWWDYWNEYDYWGQGTQVTVSS”, the “polyreactivity (PSR sort gate)” value is recorded as “high polyreactivity”.
Then “QVPLVESGGGLVQAGGILRISCAATGSSFRFKAMGWYRQAPGQERELVAAISRRGSSTYYADSVKGRCTISRDNAKNRVYLQMNSLKAEDTAVYYCAASGGYRPHRYQIGDYDNWGQGTQVTLSS”, with “high polyreactivity”; and “QVPLVESGGGLVQAGGSLRISCAASFRYNTMGWYRQAPGKERELVAAISGSGSRTYYADSVKGRFTISRDNAKITVYLQMNSLKPEDTAVFYCAALSYRNSEVGTSRGDYWGQGTQVTVSS”, with “high polyreactivity”; and “QVPLVESGGGLVQAGGSLRLSCAASGGIFGRYAMGWYRQAPGKERELVAALSARGGSSYYADSVKGRFTISRDNAKNTVYFQMNSLKPEDTAVYYCNALWVSYYTFRMDYWGQGTQVTVSS”, with “high polyreactivity”.
For the sequence “QVPLVESGGGLVQAGGSLRLSCAASGITIRGYAMGWYRQAPGKDRELVAAINTRTSTYYADSVKGRFTISRDNAKHTVYLQMNSLKPEDTAVYYCNRDPVYYDYDYWGQGTQVTVSS”, the “polyreactivity (PSR sort gate)” value is on record as “low polyreactivity”.
For “QVPLVESGGGLVQAGGSLRLSCAASGRIFKSNAMGWYRQAPGKERELVAAISYSGGSTYYADSVKGRFTISRDNAKKTVYLQMNRLKPEDTAVYYCNKYFRREYDYWGQGTQVTVSS”, the “polyreactivity (PSR sort gate)” value is “high polyreactivity”.
“QVPLVESGGGLVQAGGSLRLSCAASGRSFTSNAMGWYRQAPGKEREFVAAITIRGGSTYYADSVKGRFTISRDNATNTVYLQMHSLKPEDTALYYCAVGRRKTWGDYWGQGTQVTVSS”: the “polyreactivity (PSR sort gate)” value is reported as “high polyreactivity”.
Regarding “QVPLVESGGGLVQAGGSLRLSCAASGSIFNIYALGWYRPAPGKVWELVAGISWDSGSTFYADSVKGRVTISRDNAKNTVYLQMNSLKPEDTAGYYCNVVYETYCDEFDYWGQGTQVTVSS”, the “polyreactivity (PSR sort gate)” value was “high polyreactivity”.
For the sequence “QVPLVESGGGLVQAGGSLRLSCSASGIIFNAYTMGWYRQAPGKESELVAAITTAGSTHYADSVKGRFTISRDNAKNTVYLQMNSLKPEDTAVYYCNADTPVGKYAHLACYQDYDDWGQGTQVTVSS”, the “polyreactivity (PSR sort gate)” value is on record as “low polyreactivity”.
The result for “QVPLVESGGGLVQAGGSLSLTCAASGRNLKYYDMGWYRQAPGKERELVAAISVSGTSTYYADSVKGRFTISRDNAKNTVYLQMNSLKPEDTAVYYCATATGRYSFDYWGQGTQVTLSS” reads “low polyreactivity”.
Then “QVPLVESVGGLVQAGGSLRLSCAASGLTFWRYAMGWYRQAPGKEREFVAAISSGGSTNYADSVKGRFTISRDNAKNTVYLQMNSLKPEDTAVYYCNARYYHKRSTRVIFPYDYWGQGTQVTVSS”, with “high polyreactivity”; and “QVPLVESVGGLVQAGGSLRLSCAASGSTFLSNAMGWYRQAPGKERELVASINWIGGSTRYADSVKGRFTISRDNAKNTVYLQMNSLKPEDTAVYYCASRRRWGGHGAFLYYYWGQGTQVTVSS”, with “high polyreactivity”.
Take “QVQHEESGGGLDQAGGSLRLSSASSGTIFYGCYMGWYRQARGKEREMVATISWSSGSSTYYADSVKGRFTISRDNANNSVYLQMNILKPEDTAVYYCAVDFAIGYRYLCRVDYWGQGTQVTVSS”: the “polyreactivity (PSR sort gate)” value is listed as “low polyreactivity”.
For the sequence “QVQHEESGGGLVQAGASLRLSCAPSGRILLYNAMGCYRQAPGKERELVAAISSTGGRTYYADSVKGRFTISRDNAKNTFYLQMNSLKPEDTAVYYCAADYYWSLHQRMDYWGQGTQVTVSS”, the “polyreactivity (PSR sort gate)” value was “high polyreactivity”.
In the case of “QVQHEESGGGLVQAGGSLRLSCAASGFTFFSNAMGWFRQAPGKERELVAAITTNGGSTYYADSVKGRFTISRDNAKNTVYLQMYSLKPEDTAGYYCAAEYGITDYDYWGQGTQVTVSS”, the “polyreactivity (PSR sort gate)” value is “low polyreactivity”.
Then “QVQHEESGGGLVQAGGSLRLSCAASGLTFYPYAMGWYRQATGKESELVAGISASGGGTSYADSVKGRFTISRDNAKNTVYLQMNSLKPEDTAVYYCAATPTFFVWQGYNYWGQGTQVTVSS”, with “low polyreactivity”; and “QVQHEESRRGLVQAGVSLRLRCAASGYTFRVYLMGCYRQAPGKERELVAAITYSGGRTYYADSVKGRFTISRDNAKNTVYLQMNSLKPVDTAVYYCAAERPWYGRDRGFDYWGQGTQVTVSS”, with “high polyreactivity”.
Regarding “QVQHGESGGGLVQAGGSLRLSCAASGTTLAAYTMGWYRQAPGKERELVAAINSGGGTNYADSVKGRFTISRDNAKNTVYLQMNSLKPEDTAVYYCAKVVFVRGAPGYYWGQGTQVTVSS”, the “polyreactivity (PSR sort gate)” value is on record as “high polyreactivity”.
Then “QVQHLESGGGLVQAGGSLRLSCAASAITFDHYAMGWYRQAPGKEREFVAAIDDIGGDTYYPDSVKGRFTSSRDNAKNNVYLQMNSVQPEDTAVYDCNADGEGADSDYEYWGQGNQVTVSS”, with “low polyreactivity”; and “QVQHLETGGGLDQAGGSLRLSCAASVRTFGANAMAWYRQAPGNERALVAAITGRGGSTYYADSVKGRFTFSRDNAKNTVYLQMNSLKPEDTAVYYCAKPFKRGYGYDYWGQGTQVTVSS”, with “low polyreactivity”; and “QVQHVDSGGGLVQAGGSLLLSCAASGFTFRTYAMGWYRQAPGKEREFVAAITTSGGSTYYADSVKGRFTISRDNAKNTVYLQMNSLKPEDTAVYYCAAKKATVVYRMEYWGQGTLVTVSS”, with “high polyreactivity”.
The result for “QVQHVDSGGGLVQAGGSLRLSCAASGSSFGTYDMGWYRQAPGKERELVARISGGGSTYYADSVKGRLTISRDNAKNTVYFQMNRLKPEDTAVYYCNVRKWAYWSHAFIYTYWGQGTQVTVSS” reads “high polyreactivity”; that for “QVQHVDSGGGLVQAGGSLRLSCSASGINFPWYAMGWYRQAPGKERELVAAITSGGSTYYADSVKGRFTISRDNAKNTVYLEMYSLKPEDTAVYYCNADYYSWYLGAYLYDYWGQGTQVTVSS”, “high polyreactivity”; that for “QVQHVDTGGGLVQAGGSLRLSCAASGSIFGRYAMGWSRQAPGKERELVASINWNSGSTYYADSVKGRFTISRDNAKYTVYLQMNSLKPEDTAVYYCAAAALGYYGYRGFDYWGQGTQVTVSS”, “low polyreactivity”.
Turning to “QVQHVESAGGLVQAGGSLRLSCAASGGIFWVYAMGWSRQAPGTERELVAAISNSDTSTSYADSVKGRFTISRDNAKNTVYLQMNSLKPEDTAVYYCNAVSPSLSGDYWGQGTQVTVSS”, the “polyreactivity (PSR sort gate)” value is “low polyreactivity”.
For “QVQHVESAGGLVQAGGSLRLSCAASGRIFYVNAMGWYRPAPGKERQLVAAIRSAVGTYYADSVKGRFTISRDNAKNTVYLQMNSLKPEDTAVYYCNADASFREYRFYLIEMDYWGQGTKVTVSS”, the “polyreactivity (PSR sort gate)” value is listed as “high polyreactivity”.
Take “QVQHVESAGGLVQAGGSLRLSCAASGSTFSDYAMGRYRQAPGKERELVAAISRSGGSTYYADSVKGRFTISRDNAKNTVYLQMNSLKPEDTAVYYCAASRATLLRYGYWGQGTQVTVSS”: the “polyreactivity (PSR sort gate)” value was “low polyreactivity”.
Regarding “QVQHVESCGGLDQAGGSLRLSCAASGRTFKYYTMGWYRQAPGKQREFVAAISTGGSTHYADSVKGRFTISRDNAKNTVYLQMNSLKPEVTAVSYCAAGCVLWVRDPQGRASYYWGQGTHVTVSS”, the “polyreactivity (PSR sort gate)” value was “high polyreactivity”.
As to “QVQHVESGAGLVQAGGSLRLRCAASGIIFYYYAMGWYRQAPGKERELVASISRSGTDTYYADSVKGRFTISRDNAKYTVYLQMNSLIPEDTAVYDCAAKLYSKRTGARMNYWGQGTQVTVSS”, the “polyreactivity (PSR sort gate)” value is “high polyreactivity”.
Then “QVQHVESGAGLVQAGGSLRLSCAASGRIFSRYAMGWYRQAPGKERELVAAISERGASTYYADSVKGRFTISRDNAKNTVYLQMNSLKPEDTAVYYCAAKRGSGYGYWGQGTQVTVSS”, with “high polyreactivity”.
The result for “QVQHVESGGALVQAGGSHRLSCAASGLTIWRYAKGWYRLATGKERELVAAINYNGVRTYYADSVKGRFTISRDNAKNTVYLQMNSLKQEDTAVYYCAAKPGYYGYWGQGTQVTVSS” reads “high polyreactivity”; that for “QVQHVESGGCLVQAGGSLRLSCAASGSIFSYYDMGWYRHAPGKERELVAAIRGSGGITYADSVKGRFTISRDNAKNTVYLQMNSLKPEETAVYYCAADQYYRSDYYYWGQGTQVTVSS”, “low polyreactivity”.
Then “QVQHVESGGCLVQAGGSLRLSCAASGYTFRYYAMGWYRQAPGKERELVAAINWSGCSTYYADSVKGRFTISRDNAKNTVYLHMNSLKPEDTAVYYCAADPDGDVDIDYDYWGQGTQVTVSS”, with “low polyreactivity”; and “QVQHVESGGCLVQAGGSLRLSCASSGRTFARYAMGWSRQPPGKDSELVAAITRRGGSTYYADSVKGRFTLSRDNAKNTVSLQMNSLKPEDTAVYYCAAHYRNFGIGAYEYWGKGTQVTVSS”, with “high polyreactivity”.
For “QVQHVESGGGIVQAGGSLRLSCAASGIIFIGNAMGWYRQAPGKERELVAAITYTGGSTYYADSVKGRFTISRDNAKNTVYLQMNSLKPEDTAVYYCAVDRTHLEDDYWGQGTQVTVSS”, the “polyreactivity (PSR sort gate)” value is listed as “low polyreactivity”.
The result for “QVQHVESGGGIVQAGGSLRLSCAASGIIFSDYAMGWYRQARGKERELVATITRSVRTSYADSVKGRFTISRDNAKNTVYLQMNSLKPEDTAVYYCYADVVGAVIAYDYWGQGTQVTVSS” reads “low polyreactivity”; that for “QVQHVESGGGIVQAGGSLRLSCAASGLTITAYVMGWYRQAPGKERELVAAIRNSGGSTYYADSVKGRFTISRDNAKNTVYLQMISLKPEDTAVYYCAKQTSYWSRGYDYWGQGTQVTVSS”, “low polyreactivity”; that for “QVQHVESGGGLDQAGGSLRLSCAASGFTFVFNAMGWYRQAPGKERELVATITNGGSTYYADSVKGRFTISRDNAKNTVYLQMNSLKPEDTAVYYCAKTWFAYRDYDFWGQGTQVTVSS”, “high polyreactivity”.
Turning to “QVQHVESGGGLDQAGGSLRLSCAASGRIFYANAMGWYRQAPRKERELVAAIDWSGGSTYYADSVKGRFTISRDNAKNTVYLQMNSLKPEDTAVYYCAGPYHYYGNSVGYADYVYWGQGTQVTVSS”, the “polyreactivity (PSR sort gate)” value is on record as “low polyreactivity”.
The result for “QVQHVESGGGLLQAGGSLRLSCAASVSTLSKNAMGWYRQAPGKERELVAAITRRGGSTSYADSVKGRFTISRDNAKNTVYFQMNSLKPEDTAVYYCNAVSKYDYGYWGQGTQVTVSS” reads “high polyreactivity”.
